26 substances from patent US20080138349A1 can be followed below.

The target in assay [1] is FcγRIIB (CD32B), soluble dimeric Fc fusion (human) (UniProt P31994). As to the kind of experiment: binding to human FcRs; method not given.
The target of assay [2] is FcγRIIIA 158F (CD16A F158), soluble monomer (human) (UniProt P08637). The assay is described as follows: binding to human FcRs; method not given.
In assay [3] the target is FcγRIIA 131H (CD32A H131), soluble dimeric Fc fusion (human) (UniProt P12318). The assay is described as follows: binding to human FcRs; method not given.
Chain of FcγRIIA 131H (CD32A H131), soluble dimeric Fc fusion (human) (P12318 34-217): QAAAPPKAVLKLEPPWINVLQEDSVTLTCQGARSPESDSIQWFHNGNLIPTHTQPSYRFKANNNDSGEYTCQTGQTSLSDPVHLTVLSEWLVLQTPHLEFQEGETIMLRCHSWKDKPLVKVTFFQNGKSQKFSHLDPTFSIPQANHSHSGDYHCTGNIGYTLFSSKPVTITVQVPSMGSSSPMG
For assay [4], the target named is FcγRIIIA 158V (CD16A V158), soluble monomer (human) (UniProt P08637). The assay is described as follows: binding to human FcRs; method not given.
Chain of FcγRIIIA 158V (CD16A V158), soluble monomer (human) (P08637 17-208 F176V): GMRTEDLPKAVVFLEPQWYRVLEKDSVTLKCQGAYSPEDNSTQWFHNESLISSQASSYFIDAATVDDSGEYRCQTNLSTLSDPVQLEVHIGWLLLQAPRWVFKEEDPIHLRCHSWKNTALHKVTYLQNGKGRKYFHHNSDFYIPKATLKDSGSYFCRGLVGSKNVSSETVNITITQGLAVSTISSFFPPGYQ
Assay [5] has as its target FcγRIIIA 158F (CD16A F158), soluble monomer (human) (UniProt P08637). The assay is described as follows: Biacore SPR; value on CD16A over value on CD32B. (In SPR one partner is held on a chip, and binding of the other changes the refractive index at the surface.)
In assay [6] the target is FcγRIIIA 158V (CD16A V158), soluble monomer (human) (UniProt P08637). The assay is described as follows: Biacore SPR; value on CD16A over value on CD32B.
The target of assay [7] is FcγRIIB (CD32B), soluble dimeric Fc fusion (human) (UniProt P31994). As to the kind of experiment: Biacore SPR.
For assay [8], the target named is FcγRIIIA 158F (CD16A F158), soluble monomer (human) (UniProt P08637). As to the kind of experiment: Biacore SPR.
In assay [9] the target is FcγRIIIA 158V (CD16A V158), soluble monomer (human) (UniProt P08637). As to the kind of experiment: Biacore SPR.
For assay [10], the target named is FcγRIIA 131H (CD32A H131), soluble dimeric Fc fusion (human) (UniProt P12318). The assay is described as follows: method not given.
In assay [11] the target is FcγRIIIA 158V (CD16A V158), soluble monomer (human) (UniProt P08637). The assay is described as follows: method not given.

Chain of FcγRIIIA 158F (CD16A F158), soluble monomer (human) (P08637 17-208): as the sequence (P08637 17-208 F176V) above, with V160F counted along it
Chain of FcγRIIB (CD32B), soluble dimeric Fc fusion (human) (P31994 43-217): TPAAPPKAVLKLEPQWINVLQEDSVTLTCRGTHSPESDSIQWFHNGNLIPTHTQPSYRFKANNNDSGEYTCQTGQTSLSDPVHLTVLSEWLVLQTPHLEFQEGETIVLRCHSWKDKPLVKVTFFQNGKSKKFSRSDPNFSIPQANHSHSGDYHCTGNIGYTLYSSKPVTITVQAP

Take “Control immunoglobulin with variant Fc region S239D I332E A330L (XmAb) (antibody)”: the fold change relative to wild-type affinity in assay [1] worked out at 0.74 fold; in assay [2] it was 8.1 fold; in assay [3], 0 fold; in assay [4], 13.9 fold.
Turning to “Immunoglobulin with variant Fc region G316D R416G D270E P396L (antibody)”, in assay [5], the Ratio of Affinities CD16A F158/CD32B was 0.88. Also, the Ratio of Affinities CD16A V158/CD32B in assay [6] amounted to 1.14. The results for the Koff WT/Koff mutant in assay [7], in assay [8] and in [9] were 1.07, 0.94 and 1.22, respectively.
Taken in the same sequence, the figures for “Immunoglobulin with variant Fc region Q419H P396L D270E F243L (antibody)” were 4.42, 5.62, 0.26, 1.15 and 1.46.
For the substance “Immunoglobulin with variant Fc region P396L (antibody)”, the Ratio of Affinities CD16A F158/CD32B in assay [5] was 0.67. Besides, in [6], the Ratio of Affinities CD16A V158/CD32B was found to be 0.49. The fold change relative to wild-type affinity was 1.6 fold in [1], 0.7 fold in assay [2], 0.6 fold in [3] and 0.3 fold in assay [4]. Besides, the Koff WT/Koff mutant in assay [7] was 2.58; in assay [8] it was 1.73; in assay [9], 1.27.
On to “Immunoglobulin with variant Fc region K392T P396L D270E F243L (antibody)”, for which, in assay [5], the Ratio of Affinities CD16A F158/CD32B was 5.55. For the same substance, the Ratio of Affinities CD16A V158/CD32B in assay [6] came to 7.18. Further, the Koff WT/Koff mutant in [7] was 0.44; in [8], 2.44; in assay [9], 3.16.
Regarding “Control immunoglobulin with variant Fc region E333A K334A S298A (AAA) (antibody)”, the fold change relative to wild-type affinity in [1] was -2.5 fold; in [2], 0.1 fold; in [3], -3.3 fold; in assay [4] it was 0.6 fold.
Turning to “Immunoglobulin with variant Fc region K392T P396L (antibody)”, in [5], the Ratio of Affinities CD16A F158/CD32B turned out to be 0.77. Besides, the Ratio of Affinities CD16A V158/CD32B in assay [6] was found to be 0.63. Moreover, the Koff WT/Koff mutant worked out at 2.35 in assay [7], 1.81 in [8] and 1.49 in assay [9].
Taken in the same sequence, the figures for “Immunoglobulin with variant Fc region R255L P396L D270E F243L (antibody)” were 4.32, 4.61, 0.38, 1.64 and 1.75.
For “Immunoglobulin with variant Fc region L235Q, F243L, R292P, Y300L (antibody)”, the binding relative to wt (wt = 1) was 0.2 in [10] and 1.8 in assay [11].
With “Immunoglobulin with variant Fc region G316D R416G D270E (antibody)”, in [5], the Ratio of Affinities CD16A F158/CD32B is 3.19. Further, in assay [6], the Ratio of Affinities CD16A V158/CD32B worked out at 2.79. Moreover, the Koff WT/Koff mutant in assay [7] was 0.78; in [8], 2.49; in assay [9], 2.18.
For “Immunoglobulin with variant Fc region R292P V284M K370N (antibody)” the same measures were 3.7, 3.1, 0.37, 1.37 and 1.14.
Take “Immunoglobulin with variant Fc region R292P F243L P396L Y300L (antibody)”: the Ratio of Affinities CD16A F158/CD32B in assay [5] is 5.25. In addition, the Ratio of Affinities CD16A V158/CD32B in assay [6] came out at 9.4. The figures for the Koff WT/Koff mutant in assay [7], in [8] and in assay [9] were 1.07, 5.62 and 10.1, respectively.
As to “Immunoglobulin with variant Fc region R255L P396L D270E (antibody)”, in [5], the Ratio of Affinities CD16A F158/CD32B stood at 1.9. In addition, the Ratio of Affinities CD16A V158/CD32B in assay [6] came to 1.54. The Koff WT/Koff mutant was 0.87 in assay [7], 1.65 in [8] and 1.34 in assay [9].
With “Immunoglobulin with variant Fc region F243L R292P P396L (antibody)”, the fold change relative to wild-type affinity in [1] is -1.6 fold; in [2], 2.4 fold; in assay [3] it was 0.4 fold; in [4], 5.3 fold.
With “Immunoglobulin with variant Fc region P247L N421K D270E F243L (antibody)”, in assay [5], the Ratio of Affinities CD16A F158/CD32B was 10.8. In addition, the Ratio of Affinities CD16A V158/CD32B in assay [6] is 7.19. Further, the figures for the Koff WT/Koff mutant in assay [7], in assay [8] and in assay [9] were 0.32, 3.45 and 2.3, respectively.
Turning to “Immunoglobulin with variant Fc region F243L R292P Y300L (antibody)”, the Ratio of Affinities CD16A F158/CD32B in assay [5] turned out to be 7.19. Further, the Ratio of Affinities CD16A V158/CD32B in assay [6] is 20.9. For the same substance, the fold change relative to wild-type affinity is -0.7 fold in assay [1], 3.6 fold in assay [2], 0 fold in assay [3] and 6.4 fold in assay [4]. Also, the Koff WT/Koff mutant was determined as 0.32 in assay [7], 2.3 in [8] and 6.69 in assay [9].
Consider “Immunoglobulin with variant Fc region R292P V305I F243L P396L (antibody)”, for which the fold change relative to wild-type affinity in assay [1] was -1.6 fold; in assay [3], -0.3 fold; in [4], -3 fold.
For “Immunoglobulin with variant Fc region G316D R416G D270E F243L (antibody)”, the Ratio of Affinities CD16A F158/CD32B in [5] is 6.7. Also, the Ratio of Affinities CD16A V158/CD32B in assay [6] turned out to be 7.5. Further, the Koff WT/Koff mutant in assay [7] came out at 0.2; in assay [8], 1.34; in assay [9], 1.5.
For “Immunoglobulin with variant Fc region P396L F243L (antibody)” the same measures were 0.72, 0.67, 2.22, 1.6 and 1.49.
For “Immunoglobulin with variant Fc region P247L N421K F243L (antibody)” the same measures were 10.1, 11.1, 0.17, 1.71 and 1.89.
Taken in the same sequence, the figures for “Immunoglobulin with variant Fc region P247L N421K D270E (antibody)” were 4.24, 3.26, 0.58, 2.46 and 1.89.
Take “Immunoglobulin with variant Fc region Y300L (antibody)”: the Ratio of Affinities CD16A F158/CD32B in [5] stood at 0.99. Besides, the fold change relative to wild-type affinity in assay [1] worked out at 0.2 fold; in assay [2] it was 0.2 fold; in assay [3], 1.9 fold; in assay [4] it was 0 fold. Further, the Koff WT/Koff mutant in assay [7] was 1.18; in [9], 1.01.
With “Immunoglobulin with variant Fc region Q419H P396L (antibody)”, the Ratio of Affinities CD16A F158/CD32B in assay [5] was found to be 0.89. Moreover, the Ratio of Affinities CD16A V158/CD32B in assay [6] was determined as 0.89. Besides, the Koff WT/Koff mutant in [7] amounted to 1.33; in [8], 1.19; in assay [9] it was 1.19.
Consider “Immunoglobulin with variant Fc region R292P (antibody)”, for which the fold change relative to wild-type affinity in assay [1] is -2.7 fold; in assay [2], 0.6 fold; in [3], -0.5 fold.
For “Immunoglobulin with variant Fc region D270E (antibody)”, in [5], the Ratio of Affinities CD16A F158/CD32B is 3.79. In addition, the Ratio of Affinities CD16A V158/CD32B in [6] is 3.21. In addition, the Koff WT/Koff mutant in [7] was 0.39; in assay [8], 1.48; in assay [9] it was 1.25.
Take “Immunoglobulin with variant Fc region K392T P396L D270E (antibody)”: the Ratio of Affinities CD16A F158/CD32B in assay [5] is 2.89. In addition, in assay [6], the Ratio of Affinities CD16A V158/CD32B came out at 2.29. Besides, the Koff WT/Koff mutant in [7] was determined as 0.79; in assay [8], 2.28; in assay [9], 1.81.
